As a reminder, the Kd is the equilibrium constant for the complex coming apart. A higher Kd goes with weaker binding. Broadly, the stoichiometry N is the number of molecules, sites or subunits per partner or assembly.

No end group written: not given here.

For experiment [1], the target named is PIH1D1 N-terminal PIH-N domain fragment (UniProt Q9NWS0). As to the kind of experiment: ITC; MRE11 peptides with purified PIH1D1 PIH-N domain fragment, performed as described previously. Background: ITC needs no label: the signal is the heat of the interaction.
For experiment [2], the target named is PIH1D1 (51-180) (UniProt Q9NWS0). As to the kind of experiment: ITC; ~80 uM protein and ~800 uM peptide; performed in triplicate, means ± standard deviation; ITC as described previously.
The target in experiment [3] is T1, PIH1D1 (51-180) (UniProt Q9NWS0 51-180).
T1 construct: also called PIH1D1 N-terminal PIH-N domain fragment (aa 51-180); PIH-N; source: purified as described previously
The description is as above. The following applies: both partners purified.

Sequence of PIH1D1 (51-180) (UniProt Q9NWS0) (Q9NWS0 51-180): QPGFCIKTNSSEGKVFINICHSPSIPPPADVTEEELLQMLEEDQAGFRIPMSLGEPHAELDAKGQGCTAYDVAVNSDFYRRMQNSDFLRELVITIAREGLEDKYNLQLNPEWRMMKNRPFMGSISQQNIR
T1 sequence (Q9NWS0 51-180): as above

In the case of “MRE11 DpSDD motif-containing peptide phosphorylated on serines 558 and 561”, the equilibrium dissociation constant (Kd) in experiment [1] came to 26 µM.

In experiment [2], MRE11 pS558/pS561 peptide (ITC) yielded a Kd of 26.1 µM and a stoichiometry N of 1.1.

Take MRE11 pS688/pS689 peptide (ITC): in experiment [2], the Kd worked out at 40.9 µM and the stoichiometry N is 0.8.

“MRE11 third acidic sequence peptide phosphorylated on serines 688 and 689” displayed a Kd in experiment [1] of 41 µM.

B1: TEL2 pS491 peptide (peptide)
peptide: YSDLDSDDEFVPY
modifications: also: phosphoserine at 491 (TEL2 numbering), position in peptide not given here
notes: N-terminal tyrosine added for concentration determination; not part of TEL2; source: synthetic peptide
For B1, the “stoichiometry N” value in experiment [3] is 1.3.

For the origin of these results see PMC5531254, “MRE11 stability is regulated by CK2-dependent interaction with R2TP complex” (Oncogene, 2017).
